Measured values published in the NTF2 design screens of Basanta et al. (2020).

assay: protease stability score; higher = more stable; yeast display proteolysis, trypsin and chymotrypsin;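 further: relative to predicted unfolded state with 0 unfolded-like and 1 meaning tenfold more protease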

Sequence | protease stability score
DEYEREYKKFIDDMLHAWLTGDEDTLQELVDPNARLHFNGQELHGRDIWLRNYREHGMKVKSYHIEHREIQGEKIIIRGRLNGHVNGRNSNMDIILIIEKVDGRWVMQDIRIS | 1.98
SEEEHDAHIALKIWLDNLFTGDEEKLKEMMDPNVRMDFDGRHIHGREAIEMLLRRVDHWHHIEVRLEHLRIIGDKVILHIRQVEHIQIGDKHDRVHSNITLVFLKFDGKWFIREIRIK | 2.78
DEDEDESRRFHEEFIKRILTGDEDEFVKLLDPDVRIEIGDKKSIGRERALERFHRMLTEIRVHHVELRERTIQGDKVFLNMEVDLEFNGRRDRTKFHMIIWKVDGQWTLSEMRVK | 2.48
SEDDETSSKAMHRILEIFETGDWKKLAKLADPNVRLRIDGQDVHGRELFTKIFRTELERFGHEQFEVHKSHEDVQGDKLELHTLVIYGDKRERIEIHSVKFNGVWLISTMRIDRH | 0.935
DELEEISDTALKMFEHVVKTGDWRELEKLLDPNVKIYYNGREYHGREEAVRIWKEILDRFGADHFELRLRHKHVQGDKVSYHIELRLHYDGKTHHTFMRIIFLKVDGKWLEHELHIH | 2.38
DEDEELRRRRSEIVRKDWETGDWKSIEELADPHVKNHIGEYLAVGRENLVFVLEHFLKVLGVKHREIHSSELHIVNGRAEVHIDTRLVVNGRNIKTHVRFIFDKVNGRWVMHSVEFHVD | 1.25
NELQYKILHALRLFVESLLTGDPTTIERLLDPDARNQWDGVHHVGMEEWSRFLEELRIQIHDLEFKHIEIVDGQLRVDGREDMIIDVNGVRTRTNRKLRLIIVKFDGRWRIESVKVE | 1.22
HEDERDAEEMLRLIEEAVYTGDEDLTKYLMDPNVRIHVGDKEFHGRDFLIMRLLEIRHHRFRLELHDIRIQGNKVILDVRWRLDGEINGQRFDDTWDVIIIAEKVNGQWRVQTLIIR | 2.59
DHEEKLYELEIRLLQEIVETGDEETSHRLADPHARLNINGRHLVGREHFREFVHKIKGARLDIEEVRVQGDKVIIHGRWIQGDKELDVDFISRKIDGKWKFHSIHVH | 1.33
SEIEEEAKHVSELMVRWMETGDEKEIYKFADPHVRLEYNGREFHGRESILKHRREIIEKWGVTNIRVSPETFDVINGVVHVELILKVNGRNVIVHILIRKIDGRWRIDSESFI | 1.5
DESQHVAEKVYKHLLKYWVTGDEDSVSRLVDPHARLHFEGRDLHGRHLISQFRMEWRLDHVHVDDMQVQGDKMEVRGKLDTTIDGRRTNLNEHLRLEKIDGRWYIREIRIE | 1.25
SEEDEDKELVRHLVEKLIKTGDETLMHEMFDPNARLRVNGRDFHGRESIVKAMLEFLRWLGVDHIHFEHIIVRIVDGRIEINVTVRVEQGDKRTELRIHTRATKIDGKWILTSLTLDVR | 1.13
DEEHRDSEEMTRKFLHNFITGNEHILEDLLDPHVRTDVDGREFIGWELAFKAFREFLERLGFDHIRHRDMKLHVVGNKVTSVITNNIQVGDKEHELRIILINRKIDGKWSVTEVRIHVK | 1.25
NESEELYRIALELKRETDKTGDEEIFRKLMDPSTRLEVDGRIWHGREAVEVFIRRFDHLHRFEVKDTRVFDGQVQIEGELDSTVGDKRLNVHIEVFAIKFDGRWRLKSVRVE | 1.58
DHEEEIALEVAEKILKLWLTGDEEIMMELFDPNTRVEINGKKVHGRENVMHILHHEWREIRLKDLRIKRHESVGNKVHLDGRVNGQINGRKHSIHVRIDIEVVDGRITNISIEHS | 1.44
SEREDITHEFIQKTIKAIHTGDFILLLRLLDPDMQFDIGDKEFIGRERLREFMEEWRVRVKHYEIEHVRLQGDKLETHTHEHREIWIGDKVVHERFDRKIEITKVDGQWAIKRVEII | 0.284
DEMRKYAHEYFKLLIELLLTGDEDSMLHNIDPNVRFDEHAENHRVHIHGMESLREWLDHFLKHAWITHIHESDSRVFNGRMHLIGHTRIYIDGKLEIKEIRIEFIVINGRITHYRVEVN | 1.52
DEDERLYRIALEFLIEWHETGDEDEITRNVDPDARVDINGRNLVGREKVHRTLKELGINVLHIHRVHIVNGRLDVDGTVRFNGRTHRTRIIMLKVDGKWILDWLFIH | 1.56
DEEKEIHEELVRIWNHAVNTGNEELMERLMDPNVRLLYNGVDLIGMEHAREFNKRFDHLKIRRNEIKSFRVQGNKIDSDTHVDVELNINGKTLRVQQDQHWVVLKVDGRWYIHKIEIL | 0.799
SEHKEEIIQLAEEIFRKIVTGDWERFWELADPHVRFDVGDKTRHGREKVIEYINRFMKELRFERFHIDDIRVIDGVVVIHTKLRFRVGDFQLHHHTRHEIMMVDGRIQFLRIEWE | 0.096
